Experimental data reported in article PMC5882628, “Development of a Cell-Based Assay to Assess Binding of the proNGF Prodomain to Sortilin” (Cellular and Molecular Neurobiology, 2017).

What was measured:
[1] = tested on: empty vector control-transfected cells; assay: GSTpro signal in empty vector control-transfected HEK293 cells; assay type: cell-based, human; conditions: Fig. 3a, c, d
Procedure: HEK 293 cells were grown in DMEM with 10% fetal bovine serum. They were transfected with plasmids either encoding wild type sortilin, or sortilin with a mutation that renders it endocytosis deficient, or an empty control vector according to manufacturer’s instructions using 20 µg lipofectamine (Thermo Fischer Scientific) with 8 µg DNA on […] per 6 cm, poly-lysine coated dish. The cells were initially plated into 24-well dishes after transfection. That intermediate step rendered more uniform cell numbers in the 96-well dishes that were used to run the actual assay. 24 h later, cells were split into black opaque-walled, clear-bottom 96 well dishes at 42000 cells in 80 µl medium/well. […]
The fixed cells were washed with PBS for 15 min, followed by two 15 min washes with PBS with 0.1% Triton X-100. […] Wells to be evaluated for blocking of the sortilin-GSTpro interaction by antibodies were only stained with an antibody against the pro domain of proNGF in 10% FBS at a dilution of 1:1500 (Millipore (N-term) clone EPI318Y, Rabbit Monoclonal Antibody Catalog Number: #04-1142). […]
The following day, wells were washed 3 × 15 min with PBS/0.1% Triton X-100. […] Cellular fluorescence was quantified using an array scanner and the “Neuronal Profiler” Bioapplication (Thermo Fisher Scientific) as described below. […]

sortilin = conditions: immobilized sortilin; ref Nykjaer et al. [2004]; read-out: affinity (immobilized sortilin); cited from earlier work
Text: The assay was also used to screen for blocking of sortilin-GSTpro interaction with compound AF38469, which ...

B1: GSTpro: fusion of Glutathione S-transferase (GST) merged at the C-terminal of GST to the pro part (19–121) of human proNGF (protein)
chain: EPHSESNVPAGHTIPQAHWTKLQHSLDTALRRARSAPAAAIAARVAGQTRNITVDPRLFKKRRLRSPRVLFSTQPPREAADTQDLDFEVGGAAPFNRTHRSKR
modifications: left off: GST, N-terminal, kept
notes: fusion of Glutathione S-transferase (GST) merged at the C-terminal of GST to the pro part (19–121) of human proNGF
GSTpro binding signal in empty vector cells (in words) [1]: only very low signal | Kd (sortilin): 8 nM
